Experimental data: US20200397886A1 (University of Washington, published 2020)

Biological target: T1, I53-50A
T1 construct: Trimeric nanostructure component without antigen, used in the 33% and 66% valency particles; also called I53-50A trimers
T1 chain: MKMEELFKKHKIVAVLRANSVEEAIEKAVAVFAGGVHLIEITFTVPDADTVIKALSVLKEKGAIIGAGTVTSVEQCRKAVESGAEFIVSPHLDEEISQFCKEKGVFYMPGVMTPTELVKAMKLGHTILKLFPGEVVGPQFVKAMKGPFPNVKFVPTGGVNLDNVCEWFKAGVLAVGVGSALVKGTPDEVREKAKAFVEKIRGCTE
Assay: in vitro co-assembly of partial valency particles

B1: I53-50B.4PosT1 (designed binder)
chain: MNQHSHKDHETVRIAVVRARWHAEIVDACVSAFEAAMRDIGGDRFAVDVFDVPGAYEIPLHARTLAETGRYGAVLGTAFVVNGGIYRHEFVASAVINGMMNVQLNTGVPVLSAVLTPHNYDKSKAHTLLFLALFAVKGMEAARACVEILAAREKIAA
notes: Pentameric nanostructure component expressed in E. coli; the N-terminal methionine is said to be optional; also called I53-50B.4PT1; I53-50B.4PT
binding result: binds
